Source: patent US20150196663A1

Biological target: rat transferrin receptor (rat) (UniProt Q99376)
Assay: cell-based or functional assay

Chain of UniProt Q99376 (Q99376 whole entry): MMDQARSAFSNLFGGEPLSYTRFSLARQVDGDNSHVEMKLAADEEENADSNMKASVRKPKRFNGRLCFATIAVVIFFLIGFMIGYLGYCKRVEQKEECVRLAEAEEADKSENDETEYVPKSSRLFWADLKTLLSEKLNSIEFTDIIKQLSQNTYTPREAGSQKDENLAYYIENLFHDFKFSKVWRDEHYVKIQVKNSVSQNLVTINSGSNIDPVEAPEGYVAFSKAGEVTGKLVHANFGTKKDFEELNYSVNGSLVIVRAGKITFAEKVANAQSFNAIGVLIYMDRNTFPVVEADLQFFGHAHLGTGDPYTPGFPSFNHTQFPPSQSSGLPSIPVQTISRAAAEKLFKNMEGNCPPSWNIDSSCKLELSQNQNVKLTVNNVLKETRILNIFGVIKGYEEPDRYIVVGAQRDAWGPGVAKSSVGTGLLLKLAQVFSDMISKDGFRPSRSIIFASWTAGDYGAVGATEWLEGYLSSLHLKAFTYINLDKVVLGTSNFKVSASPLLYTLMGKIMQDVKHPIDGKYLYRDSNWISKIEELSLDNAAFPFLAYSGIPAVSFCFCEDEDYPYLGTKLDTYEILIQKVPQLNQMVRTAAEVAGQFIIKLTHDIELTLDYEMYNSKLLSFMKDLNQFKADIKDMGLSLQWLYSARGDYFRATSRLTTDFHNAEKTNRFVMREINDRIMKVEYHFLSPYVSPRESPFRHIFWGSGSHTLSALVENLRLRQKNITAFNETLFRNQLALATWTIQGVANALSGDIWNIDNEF

With “OX-26, positive control antibody against the rat transferrin receptor (AbD Serotec, # MCA155G)” the percentage of RBE4 cells exhibiting multiple internalized vesicles per cell was 92% and the percentage of primary BMECs exhibiting multiple internalized vesicles per cell was 46%.
